For the data set, the target named is Rsc3ΔIDR (Saccharomyces cerevisiae, UniProt Q06639 1-885, del197-303). Description: EMSA.

B1: ACC1_TIM23 probe (RSC3 consensus oligonucleotide) (dsDNA)
DNA 1: ACGCGCGCGCGGCCGGGCCA
DNA 2: TGGCCCGGCCGCGCGCGCGT
Regarding B1, the binding result is recorded as “binds”.

The values above are taken from paper PMC10297700.
